# Laboratory results published in patent US20250326840A1 (QURE BIOTECHNOLOGY SHANGHAI, published 2025).
# Like-named read-outs stand apart in the source and are kept apart here.
# Columns and labels:
# [1] = biological target: T1, QP098 (cyno SIRPα (I7G9Z7) ECD(E31-R369)-flag-his) (cynomolgus); test: SPR, Biacore
# T1 construct: the construct carries flag and his tags; also called cynoSIRPα (ECD); cynomolgus SIRPα
# T1 chain: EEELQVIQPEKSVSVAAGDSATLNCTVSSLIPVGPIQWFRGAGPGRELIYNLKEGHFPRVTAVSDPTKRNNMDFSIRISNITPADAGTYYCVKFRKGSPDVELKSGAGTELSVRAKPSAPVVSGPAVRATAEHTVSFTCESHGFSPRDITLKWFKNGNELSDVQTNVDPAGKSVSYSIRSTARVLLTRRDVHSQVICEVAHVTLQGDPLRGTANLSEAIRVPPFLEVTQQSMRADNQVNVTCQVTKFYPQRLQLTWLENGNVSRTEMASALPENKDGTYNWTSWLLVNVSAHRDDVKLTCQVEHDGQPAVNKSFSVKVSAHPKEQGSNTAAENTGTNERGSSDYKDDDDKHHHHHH
# [2] = biological target: T2, QP271 (rhesus SIRPα1-flag-his T-557-28) (rhesus monkey); test: SPR, Biacore
# T2 construct: also called rhesus monkey SIRPα (QP271); monkeySIRPα1-flag-his
# T2 chain: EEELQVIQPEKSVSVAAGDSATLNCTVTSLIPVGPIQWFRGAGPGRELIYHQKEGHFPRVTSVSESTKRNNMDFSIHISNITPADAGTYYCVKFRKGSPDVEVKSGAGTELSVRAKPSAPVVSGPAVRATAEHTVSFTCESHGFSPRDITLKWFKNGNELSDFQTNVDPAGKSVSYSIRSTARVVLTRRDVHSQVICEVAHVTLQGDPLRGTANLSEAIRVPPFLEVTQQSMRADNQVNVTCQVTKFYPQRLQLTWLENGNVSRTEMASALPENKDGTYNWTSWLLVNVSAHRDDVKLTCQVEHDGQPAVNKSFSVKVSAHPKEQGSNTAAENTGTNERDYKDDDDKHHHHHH
# [3] = biological target: T3, QP273 (cynoSIRPα2-flag-his T-557-14) (cynomolgus); test: SPR, Biacore
# T3 construct: also called cynomolgus SIRPα (QP273)
# T3 chain: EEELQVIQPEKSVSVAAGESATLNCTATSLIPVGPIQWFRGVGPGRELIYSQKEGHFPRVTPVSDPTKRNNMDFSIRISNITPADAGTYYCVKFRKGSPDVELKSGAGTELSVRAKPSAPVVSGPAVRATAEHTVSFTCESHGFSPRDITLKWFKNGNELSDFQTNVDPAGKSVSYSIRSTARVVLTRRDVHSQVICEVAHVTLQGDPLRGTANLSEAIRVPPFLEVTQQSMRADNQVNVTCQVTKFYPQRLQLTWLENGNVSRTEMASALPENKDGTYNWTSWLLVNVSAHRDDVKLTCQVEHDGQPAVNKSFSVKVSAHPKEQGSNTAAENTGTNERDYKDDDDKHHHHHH
# [4] = biological target: T1, QP098 (cyno SIRPα (I7G9Z7) …); test: binding ELISA, antigen coated
# [5] = biological target: T4, QP100 (cyno SIRPα (G7PGS8) ECD(E29-R368)-flag-his) (cynomolgus); test: binding ELISA, antigen coated
# T4 construct: the construct carries flag and his tags; also called cynoSIRPα-flag-his; Cynomolgus SIRPα (QP100)
# T4 chain: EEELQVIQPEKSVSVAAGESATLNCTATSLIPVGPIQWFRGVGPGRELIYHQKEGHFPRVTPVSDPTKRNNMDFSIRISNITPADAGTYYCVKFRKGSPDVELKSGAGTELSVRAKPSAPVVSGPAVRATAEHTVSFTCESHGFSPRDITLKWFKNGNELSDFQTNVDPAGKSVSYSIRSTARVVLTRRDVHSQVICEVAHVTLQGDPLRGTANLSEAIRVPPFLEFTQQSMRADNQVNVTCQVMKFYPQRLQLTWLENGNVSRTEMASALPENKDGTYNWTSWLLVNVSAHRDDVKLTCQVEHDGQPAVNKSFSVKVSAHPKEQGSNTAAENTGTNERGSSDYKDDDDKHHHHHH
# [6] = biological target: T2, QP271 (rhesus SIRPα1-flag-his T-557-28); test: binding ELISA, antigen coated
# [7] = biological target: T3, QP273 (cynoSIRPα2-flag-his T-557-14); test: binding ELISA, antigen coated
# [8] = biological target: T5, QP002 (biotinylated in the blocking assays, sites not given); test: blocking ELISA: CD47 FC (QP001) coated, biotin SIRPα-FC (QP002) mixed with the antibody, HRP-streptavidin; blocked ligand: CD47; unit from the x axis Log(Conc.(nM))
# T5 construct: also called SIRPα-FC; Biotin-QP002
# [9] = biological target: T6, QP094 (human SIRPα V1 ECD(E31-R370)-flag-his) (human, UniProt P78324 31-370); test: SPR, Biacore 8K
# T6 construct: the construct carries flag and his tags; also called SIRPαV1-flag-his; SIRPαV1-his (QP094)
# [10] = biological target: T6, QP094 (human SIRPα V1 …); test: SPR, Biacore 8K; remark: listed apart in the source
# [11] = biological target: T7, QP096 (human SIRPα V2 ECD(E31-R370)-flag-his) (human); test: SPR, Biacore 8K
# T7 construct: the construct carries flag and his tags; also called SIRPαV2-Flag-his; Human SIRPα V2 (QP096)
# [12] = biological target: SIRPα V7 fusion Fc (mouse IgG2a) (human); test: ELISA, SIRPα V7-mouse IgG2a Fc coated, anti-hFab detection
# [13] = biological target: SIRPα V8 fusion Fc (mouse IgG2a) (human); test: ELISA, SIRPα V8-mouse IgG2a Fc coated, anti-hFab detection
# [14] = biological target: SIRPα V2 fusion Fc (mouse IgG2a) (human); test: ELISA, SIRPα V2-mouse IgG2a Fc coated, anti-hFab detection; unit from the x axis; the curve is flat at the baseline, the fit is marked ambiguous (~)
# [15] = biological target: SIRPα V10 fusion Fc (mouse IgG2a) (human); test: ELISA, SIRPα V10-mouse IgG2a Fc coated, anti-hFab detection; unit from the x axis; the curve is flat at the baseline, the fit is marked ambiguous (~)
# Sequence of SIRPα V10 fusion Fc (mouse IgG2a) (human) (chain, as listed by the source limits assumed): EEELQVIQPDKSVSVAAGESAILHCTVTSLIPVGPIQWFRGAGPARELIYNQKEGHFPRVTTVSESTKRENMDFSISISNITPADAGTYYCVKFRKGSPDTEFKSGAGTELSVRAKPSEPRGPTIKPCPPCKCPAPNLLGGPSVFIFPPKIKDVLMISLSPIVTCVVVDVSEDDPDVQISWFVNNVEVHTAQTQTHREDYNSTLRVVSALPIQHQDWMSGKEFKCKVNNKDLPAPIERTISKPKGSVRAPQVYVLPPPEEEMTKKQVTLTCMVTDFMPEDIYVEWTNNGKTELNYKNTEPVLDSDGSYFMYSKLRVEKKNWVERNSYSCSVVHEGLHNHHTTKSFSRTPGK
# T5 sequence (SIRPα-Fc fusion chain, as listed by the source): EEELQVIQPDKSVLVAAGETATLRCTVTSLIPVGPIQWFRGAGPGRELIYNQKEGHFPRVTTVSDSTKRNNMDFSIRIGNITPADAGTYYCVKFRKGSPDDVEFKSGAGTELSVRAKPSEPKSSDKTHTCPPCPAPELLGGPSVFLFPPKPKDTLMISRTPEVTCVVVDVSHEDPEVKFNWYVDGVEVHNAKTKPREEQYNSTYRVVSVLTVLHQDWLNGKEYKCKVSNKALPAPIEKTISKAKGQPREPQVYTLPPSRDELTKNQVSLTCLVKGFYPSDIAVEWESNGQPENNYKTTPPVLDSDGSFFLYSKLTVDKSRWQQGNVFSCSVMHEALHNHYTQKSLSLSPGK
# Sequence of SIRPα V7 fusion Fc (mouse IgG2a) (human) (chain, as listed by the source limits assumed): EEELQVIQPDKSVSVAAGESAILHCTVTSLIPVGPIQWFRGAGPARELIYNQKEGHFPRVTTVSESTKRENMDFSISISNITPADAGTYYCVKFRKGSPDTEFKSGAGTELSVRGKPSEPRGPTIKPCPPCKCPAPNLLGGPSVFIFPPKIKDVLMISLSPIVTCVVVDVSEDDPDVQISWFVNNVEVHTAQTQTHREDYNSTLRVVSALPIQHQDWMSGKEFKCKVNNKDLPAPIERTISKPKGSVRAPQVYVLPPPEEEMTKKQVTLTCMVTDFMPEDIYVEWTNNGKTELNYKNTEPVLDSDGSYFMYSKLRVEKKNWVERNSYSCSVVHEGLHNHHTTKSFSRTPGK
# Sequence of SIRPα V8 fusion Fc (mouse IgG2a) (human) (chain, as listed by the source limits assumed): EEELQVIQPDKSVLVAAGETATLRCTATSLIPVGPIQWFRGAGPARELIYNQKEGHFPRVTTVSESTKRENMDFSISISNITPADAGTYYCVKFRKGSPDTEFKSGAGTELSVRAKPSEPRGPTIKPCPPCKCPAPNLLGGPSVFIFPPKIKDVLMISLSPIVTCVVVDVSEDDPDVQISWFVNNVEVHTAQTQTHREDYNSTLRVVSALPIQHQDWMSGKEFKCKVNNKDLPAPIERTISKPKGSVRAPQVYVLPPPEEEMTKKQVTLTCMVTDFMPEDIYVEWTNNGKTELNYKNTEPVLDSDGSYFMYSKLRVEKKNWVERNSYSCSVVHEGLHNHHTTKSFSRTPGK
binder,measurement,setting,value
"QP256279 (antibody, human IgG4, V domains shown, Human IgG4 heavy constant region and kappa CL) VH: QVQLVQSGAEVKKPGASVKVSCKASGYTFTNYWINWVRQAPGQGLEWIAMIDPSDSETHYNQIFKDRATLTTDTSTSTAYMELRSLRSDDTAVYYCAMDYGSLYAMDYWGRGTLVTVSS VL: DIVLTQSPDSLAVSLGERATINCRASQSVRSSGYNWIFWYQQKPGQPPKLLIYLASNRDSGVPDRFSGSGSGTDFTLTISSLQAEDVAVYYCQHSRELPTFGQGTKLEIK",Kd,[1],1.56 nM
same,Kd,[2],0.441 nM
same,Kd,[3],0.918 nM
same,EC50,[4],0.619 ng/mL
same,EC50,[5],0.558 ng/mL
same,EC50,[6],0.601 ng/mL
same,EC50,[7],0.721 ng/mL
"QP32700279 (antibody, human IgG1, kappa, L234A L235A, V domains shown, also called SIRPα monoclonal antibody CHO71) VH: QVQLVQSGAEVKKPGASVKVSCKASGYTFTNYWINWVRQAPGQGLEWIAMIDPSDSETHYNQIFKDRATLTTDTSTSTAYMELRSLRSDDTAVYYCAMDYGSLYAMDYWGRGTLVTVSS VL: DIVLTQSPDSLAVSLGERATINCRASQSVRSSGYNWIFWYQQKPGQPPKLLIYLASNRDSGVPDRFSGSGSGTDFTLTISSLQAEDVAVYYCQHSRELPTFGQGTKLEIKR",IC50,[8],0.208 nM
"QP026249 (KWAR23 analog) (antibody, human IgG4 S228P, kappa, also called KAWA23 analog; control antibody KWAR23 (QP026249), human IgG4) heavy: not shown light: QIVLTQSPAIMSASPGEKVTLTCSASSSVSSSYLYWYQQKPGSSPKLWIYSTSNLASGVPARFSGSGSGTSYSLTISSMEAEDAASYFCHQWSSYPRTFGAGTKLELKRTVAAPSVFIFPPSDEQLKSGTASVVCLLNNFYPREAKVQWKVDNALQSGNSQESVTEQDSKDSTYSLSSTLTLSKADYEKHKVYACEVTHQGLSSPVTKSFNRGEC",Kd,[9],4.7 nM
same,koff,[9],0.00386 s⁻¹
same,kon,[9],822000 M⁻¹ s⁻¹
same,Kd,[10],4.69 nM
same,koff,[10],0.00386 s⁻¹
same,kon,[10],822000 M⁻¹ s⁻¹
same,Kd,[11],17.5 nM
same,koff,[11],0.0242 s⁻¹
same,kon,[11],1.38e+06 M⁻¹ s⁻¹
"QP250251 (18D5 analog) (antibody, human IgG4 S228P, kappa, V domains shown, also called SIRPα antibody 18D5 from OSE) VH: QVQLQQPGAELVRPGSSVKLSCKASGYTFTSYWVHWVKQRPIQGLEWIGNIDPSDSDTHYNQKFKDKASLTVDKSSSTAYMQLSSLTFEDSAVYYCVRGGTGTMAWFAYWGQGTLVTVSA VL: DVVMTQTPLSLPVSLGDQASISCRSSQSLVHSYGNTYLYWYLQKPGQSPKLLIYRVSNRFSGVPDRFSGSGSGTDFTLKISRVEAEDLGVYFCFQGTHVPYTFGSGTKLEIKR",binding result,[12],no binding (tested: about 67 nM (last point at log 1.8))
same,binding result,[13],no binding (tested: about 67 nM (last point at log 1.8))
same,EC50,[14],~0.0554 nM
same,EC50,[15],~0.0554 nM
